Results from patent US20260176319A1 (KALLYOPE, published 2026).
Starred links: 1 amine or outer side, 2 acyl side, 3 side chain; linkers in the order of their positions; H or OH if unused. Non-standard residues stand in square brackets, D forms with d. No end group written: not given here. *: point of attachment. Trp(7-Me) = Cc1cccc2c(C[C@H](N)C(=O)O)c[nH]c12; C20 diacid = O=C(O)CCCCCCCCCCCCCCCCCCC(=O)*; d(γGlu) = O=C(O)[C@@H](CCC(=O)[*:2])N[*:1]; C18 diacid = O=C(O)CCCCCCCCCCCCCCCCC(=O)*; γGlu = O=C(O)[C@H](CCC(=O)[*:2])N[*:1]; Palmitoyl = CCCCCCCCCCCCCCCC(=O)*; 3Pal = N[C@@H](Cc1cccnc1)C(=O)O; Nle = CCCC[C@H](N)C(=O)O; AEEA = NCCOCCOCC(=O)O; Aib = CC(C)(N)C(=O)O; βAla = NCCC(=O)O

B1: Peptide 13 (peptide)
peptide: Palmitoyl-[d(γGlu)][AEEA][AEEA]GNH[Trp(7-Me)]AV[dA]HL[Nle]-NH2
SMILES: CCCCCCCCCCCCCCCC(=O)N[C@H](CCC(=O)NCCOCCOCC(=O)NCCOCCOCC(=O)NCC(=O)N[C@@H](CC(N)=O)C(=O)N[C@@H](Cc1c[nH]cn1)C(=O)N[C@@H](Cc1c[nH]c2c(C)cccc12)C(=O)N[C@@H](C)C(=O)N[C@H](C(=O)N[C@H](C)C(=O)N[C@@H](Cc1c[nH]cn1)C(=O)N[C@@H](CC(C)C)C(=O)N[C@@H](CCCC)C(N)=O)C(C)C)C(=O)O
B2: Peptide 245 (peptide)
peptide: {C20 diacid}-[γGlu][γGlu][AEEA][AEEA][dF]N[3Pal]WAV[βAla]HL[Nle]-NH2
SMILES: CCCC[C@H](NC(=O)[C@H](CC(C)C)NC(=O)[C@H](Cc1c[nH]cn1)NC(=O)CCNC(=O)[C@@H](NC(=O)[C@H](C)NC(=O)[C@H](Cc1c[nH]c2ccccc12)NC(=O)[C@H](Cc1cccnc1)NC(=O)[C@H](CC(N)=O)NC(=O)[C@@H](Cc1ccccc1)NC(=O)COCCOCCNC(=O)COCCOCCNC(=O)CC[C@H](NC(=O)CC[C@H](NC(=O)CCCCCCCCCCCCCCCCCCC(=O)O)C(=O)O)C(=O)O)C(C)C)C(N)=O
B3: Peptide 165 (peptide)
peptide: {C20 diacid}-[γGlu]GQHWAV[dA]HL[Nle]-NH2
SMILES: CCCC[C@H](NC(=O)[C@H](CC(C)C)NC(=O)[C@H](Cc1c[nH]cn1)NC(=O)[C@@H](C)NC(=O)[C@@H](NC(=O)[C@H](C)NC(=O)[C@H](Cc1c[nH]c2ccccc12)NC(=O)[C@H](Cc1c[nH]cn1)NC(=O)[C@H](CCC(N)=O)NC(=O)CNC(=O)CC[C@H](NC(=O)CCCCCCCCCCCCCCCCCCC(=O)O)C(=O)O)C(C)C)C(N)=O
B4: Peptide 242 (peptide)
peptide: {C20 diacid}-[γGlu][AEEA][AEEA]GRH[Trp(7-Me)]AV[βAla]HL[Nle]-NH2
SMILES: CCCC[C@H](NC(=O)[C@H](CC(C)C)NC(=O)[C@H](Cc1c[nH]cn1)NC(=O)CCNC(=O)[C@@H](NC(=O)[C@H](C)NC(=O)[C@H](Cc1c[nH]c2c(C)cccc12)NC(=O)[C@H](Cc1c[nH]cn1)NC(=O)[C@H](CCCNC(=N)N)NC(=O)CNC(=O)COCCOCCNC(=O)COCCOCCNC(=O)CC[C@H](NC(=O)CCCCCCCCCCCCCCCCCCC(=O)O)C(=O)O)C(C)C)C(N)=O
B5: Peptide 241 (peptide)
peptide: {C20 diacid}-[γGlu][AEEA][AEEA]GQHWAV[βAla]HL[Nle]-NH2
SMILES: CCCC[C@H](NC(=O)[C@H](CC(C)C)NC(=O)[C@H](Cc1c[nH]cn1)NC(=O)CCNC(=O)[C@@H](NC(=O)[C@H](C)NC(=O)[C@H](Cc1c[nH]c2ccccc12)NC(=O)[C@H](Cc1c[nH]cn1)NC(=O)[C@H](CCC(N)=O)NC(=O)CNC(=O)COCCOCCNC(=O)COCCOCCNC(=O)CC[C@H](NC(=O)CCCCCCCCCCCCCCCCCCC(=O)O)C(=O)O)C(C)C)C(N)=O
B6: Peptide 243 (peptide)
peptide: {C18 diacid}-[γGlu][γGlu][AEEA][AEEA]GRHWAV[βAla]HL[Nle]-NH2
SMILES: CCCC[C@H](NC(=O)[C@H](CC(C)C)NC(=O)[C@H](Cc1c[nH]cn1)NC(=O)CCNC(=O)[C@@H](NC(=O)[C@H](C)NC(=O)[C@H](Cc1c[nH]c2ccccc12)NC(=O)[C@H](Cc1c[nH]cn1)NC(=O)[C@H](CCCNC(=N)N)NC(=O)CNC(=O)COCCOCCNC(=O)COCCOCCNC(=O)CC[C@H](NC(=O)CC[C@H](NC(=O)CCCCCCCCCCCCCCCCC(=O)O)C(=O)O)C(=O)O)C(C)C)C(N)=O
B7: Peptide 244 (peptide)
peptide: {C20 diacid}-[γGlu][γGlu][AEEA][AEEA]GRHWAV[dA]HL[Nle]-NH2
SMILES: CCCC[C@H](NC(=O)[C@H](CC(C)C)NC(=O)[C@H](Cc1c[nH]cn1)NC(=O)[C@@H](C)NC(=O)[C@@H](NC(=O)[C@H](C)NC(=O)[C@H](Cc1c[nH]c2ccccc12)NC(=O)[C@H](Cc1c[nH]cn1)NC(=O)[C@H](CCCNC(=N)N)NC(=O)CNC(=O)COCCOCCNC(=O)COCCOCCNC(=O)CC[C@H](NC(=O)CC[C@H](NC(=O)CCCCCCCCCCCCCCCCCCC(=O)O)C(=O)O)C(=O)O)C(C)C)C(N)=O
B8: Peptide 161 (peptide)
peptide: {C18 diacid}-[γGlu][AEEA][AEEA][dF]QHWAV[dA]HL[Nle]-NH2
SMILES: CCCC[C@H](NC(=O)[C@H](CC(C)C)NC(=O)[C@H](Cc1c[nH]cn1)NC(=O)[C@@H](C)NC(=O)[C@@H](NC(=O)[C@H](C)NC(=O)[C@H](Cc1c[nH]c2ccccc12)NC(=O)[C@H](Cc1c[nH]cn1)NC(=O)[C@H](CCC(N)=O)NC(=O)[C@@H](Cc1ccccc1)NC(=O)COCCOCCNC(=O)COCCOCCNC(=O)CC[C@H](NC(=O)CCCCCCCCCCCCCCCCC(=O)O)C(=O)O)C(C)C)C(N)=O
B9: Peptide 160 (peptide)
peptide: {C20 diacid}-[γGlu]GNHWAV[dA][dH]L[Nle]-NH2
SMILES: CCCC[C@H](NC(=O)[C@H](CC(C)C)NC(=O)[C@@H](Cc1c[nH]cn1)NC(=O)[C@@H](C)NC(=O)[C@@H](NC(=O)[C@H](C)NC(=O)[C@H](Cc1c[nH]c2ccccc12)NC(=O)[C@H](Cc1c[nH]cn1)NC(=O)[C@H](CC(N)=O)NC(=O)CNC(=O)CC[C@H](NC(=O)CCCCCCCCCCCCCCCCCCC(=O)O)C(=O)O)C(C)C)C(N)=O
B10: Peptide 14 (peptide)
peptide: Palmitoyl-[d(γGlu)][AEEA][AEEA]GNH[Trp(7-Me)][Aib]V[dA]HL[Nle]-NH2
SMILES: CCCCCCCCCCCCCCCC(=O)N[C@H](CCC(=O)NCCOCCOCC(=O)NCCOCCOCC(=O)NCC(=O)N[C@@H](CC(N)=O)C(=O)N[C@@H](Cc1c[nH]cn1)C(=O)N[C@@H](Cc1c[nH]c2c(C)cccc12)C(=O)NC(C)(C)C(=O)N[C@H](C(=O)N[C@H](C)C(=O)N[C@@H](Cc1c[nH]cn1)C(=O)N[C@@H](CC(C)C)C(=O)N[C@@H](CCCC)C(N)=O)C(C)C)C(=O)O

Target: human GRP receptor (human, UniProt P30550 1-384)
Assay: cell-based or functional assay

Sequence of human GRP receptor (P30550 whole entry): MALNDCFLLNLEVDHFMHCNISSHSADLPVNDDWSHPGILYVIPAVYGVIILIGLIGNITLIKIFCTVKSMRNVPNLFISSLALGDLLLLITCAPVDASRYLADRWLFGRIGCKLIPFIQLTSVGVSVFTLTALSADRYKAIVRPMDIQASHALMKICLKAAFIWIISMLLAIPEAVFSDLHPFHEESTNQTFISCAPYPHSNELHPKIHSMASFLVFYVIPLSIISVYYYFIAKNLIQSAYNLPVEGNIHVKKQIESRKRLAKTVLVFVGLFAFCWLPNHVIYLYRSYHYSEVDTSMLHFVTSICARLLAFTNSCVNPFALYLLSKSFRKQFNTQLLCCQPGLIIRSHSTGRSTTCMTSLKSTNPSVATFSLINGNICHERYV

| hIP1 GRPR EC50 | Binder |
| --- | --- |
| 1.08 nM | B1 |
| 11.9 nM | B2 |
| 1.55 nM | B3 |
| 248 nM | {C18 diacid}-[γGlu][AEEA][AEEA]GRHWAV[dA]HL[Nle] [Peptide 166] |
| 3.9 nM | B4 |
| 2 nM | B5 |
| 3.6 nM | B6 |
| 2.8 nM | B7 |
| 88.5 nM | {C20 diacid}-[γGlu]RRHWAV[dA]HL[Nle] [Peptide 163] |
| 11.9 nM | EEXXGNHWAVGHLX (Palmitoyl-γGlu-γGlu-OEG-OEG-Gly-Asn-His-Trp-Ala-Val-Gly-His-Leu-Nle-NH2) [Peptide 240] |
| 114 nM | {C20 diacid}-[γGlu][AEEA][AEEA]GRHWAV[dA]HL[Nle] [Peptide 167] |
| 21.4 nM | B8 |
| 125 nM | {C20 diacid}-[γGlu]GNHWAV[dA]HL[Nle] [Peptide 164] |
| 31.5 nM | B9 |
| 19.6 nM | {C20 diacid}-[γGlu]GRHWAV[dA]HL[Nle] [Peptide 162] |
| 10.8 nM | B10 |
